# Data taken from US20200384107A1 (PRIMATOPE THERAPEUTICS, published 2020).
# T1: rhesus CD40-MBP fusion (rhesus macaque (M. mulatta), UniProt P25942 21-120 (human entry))
# T1 construct: also called CD40-MBP fusions of rhesus
# T1 chain: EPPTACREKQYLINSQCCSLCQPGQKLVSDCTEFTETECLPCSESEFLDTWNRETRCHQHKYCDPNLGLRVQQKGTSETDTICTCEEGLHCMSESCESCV
# Columns and labels:
# [1] = biological target: T2, CD40 (as in Table 2, species and form not stated); experiment: binding kinetics, method not stated
# T2 construct: also called CD40 Receptor
# [2] = biological target: T3, human CD40, recombinant / purified (human, UniProt P25942 21-193, limits assumed); experiment: kinetics on human CD40; Biacore by paragraph 276, Forte Bio with biotinylated CD40 on streptavidin biosensors by paragraph 270
# T3 construct: also called hCD40; purified CD40
# [3] = biological target: T4, human CD40 on human blood B cells (CD20+ cells of PBMCs) (human, UniProt P25942 21-277); experiment: flow cytometry blocking assay: human B cells incubated with 2C10, then with histidine-tagged soluble CD154, read by histidine staining
# T4 construct: whole, on cells; also called human CD20+ B cells; human B cells
# Procedure: To assess the ability of 2C10 to bind to both rhesus and human CD40, recombinantly expressed human or rhesus CD40 were adsorbed to ELISA plates and reacted with varying concentrations of 2C10. Binding of 2C10 to CD40 was detected using goat anti-mouse IgG-HRP in an ELISA. […] To confirm the ability of 2C10 to block binding of its cognate ligand, CD154, rhesus and human B cells were incubated with escalating concentrations of 2C10 or an isotype control and then incubated with histidine-tagged soluble CD154 (R&D Systems, Minneapolis, Minn.) and analyzed for histidine expression.
# [4] = biological target: T3, human CD40, recombinant / purified; experiment: kinetics on human CD40, compared with murine 2C10
# [5] = biological target: T3, human CD40, recombinant / purified; experiment: kinetics on human CD40, compared with parent 2C10
# [6] = biological target: T3, human CD40, recombinant / purified; experiment: CD40 binding affinity, method not given; reference murine 2C10
# [7] = biological target: T5, human CD40-MBP fusion (human, UniProt P25942 21-193; P0AEX9 27-392 = MBP, limits assumed); experiment: BIACore 3000, h2C10 amine-coupled to a CM5 chip, human CD40-MBP injected at 0-160 nM
# T5 construct: also called CD40-MBP fusions of human
# Procedure: (§1) Humanized 2C10 antibodies (h2C10) were immobilized to the surface of CM5 chip by amine coupling. Different concentrations of CD40-MBP fusions of human, rhesus, and baboon were analyzed for affinity on a BIACore 3000. The binding affinity was calculated with BIAevaluation software version 4.1.1.
# [8] = biological target: T6, baboon CD40-MBP fusion (baboon, UniProt P0AEX9 27-392 = MBP); experiment: BIACore 3000, h2C10 amine-coupled to a CM5 chip, baboon CD40-MBP injected at 0-160 nM
# T6 construct: also called CD40-MBP fusions of baboon; not shown: baboon CD40 part of the MBP fusion
# Procedure: as §1
# [9] = biological target: T1, rhesus CD40-MBP fusion; experiment: BIACore 3000, h2C10 amine-coupled to a CM5 chip, rhesus CD40-MBP injected at 0-160 nM
# Procedure: as §1
Binder,Kd [1] [nM],koff [1] [s⁻¹],kon [1] [M⁻¹ s⁻¹],Kd [2] [nM],koff [2] [s⁻¹],kon [2] [M⁻¹ s⁻¹],IC50 (read off the curve) [3] [µg/mL],fold of affinity against murine 2C10 [4] [fold],fold reduction in affinity relative to the parent 2C10 mAb [5] [fold],fold of the affinity of murine 2C10 [6] [fold],Kd [7] [nM],Kd [8] [nM],Kd [9] [nM]
"2C10 (murine anti-CD40 monoclonal antibody) (antibody, V domains shown, In some assays it was conjugated to a fluorochrome (APC); also called murine 2C10; parent 2C10 mAb) VH: QVQLQQSGAELAKPGASVKMSCKASGYTFTNYWMHWVKQRPGQGLEWIGYINPSNDYTKYNQKFKDKATLTADKSSNTAYMQLGSLTSEDSAVYYCARQGFPYWGQGTLVTVSA VL: QIVLTQSPAIMSASPGEKVTMTCSASSSVSYMHWYHQRSGTSPKRWIYDTSKLASGVPARFSGSGSGTSYSLTISSMEAEDAATYYCHQLSSDPFTFGSGTKLEIK",0.273,1.86e-06,2730,0.222,6.01e-05,148000,~1,–,–,–,–,–,–
"humanized 2C10, clone 2.189.2 (2C10_h3 + 2C10_l2) (antibody, V domains shown, also called h2C10; mAb 2.189.2) VH: QVQLVQSGAEVKKPGASVKVSCKASGYTFTNYWMHWVRQAPGQRLEWIGYINPSNDYTKYNQKFKDRATLTADKSANTAYMELSSLRSEDTAVYYCARQGFPYWGQGTLVTVSS VL: EIVLTQSPATLSLSPGERATLSCSASSSVSYMHWYQQKPGQAPRRWIYDTSKLASGVPARFSGSGSGTDYTLTISSLEPEDFAVYYCHQLSSDPFTFGGGTKVEIK",–,–,–,0.39,0.000128,179000,–,≤ 2,~2,≤ 2,4.72,2.57,2.61
